B1: melanotransferrin p97(668-683) (peptide)
peptide: GQDLLFKDATVRAVPV
notes: Eluted from HLA-DR of dendritic cells; also called 13

Biological target: HLA-DR4 (DRB1*0401) (human)
Assay: in vitro peptide competition assay, purified HLA-DR, biotinylated HA(307-319) reporter

Binder	binding result
DKARVEVERDNLAEDIM (Eluted from HLA-DR of dendritic cells) [vimentin(167-183)]	binds
B1	binds
TLQSFRQDVDNASLAR (Eluted from HLA-DR of dendritic cells) [vimentin(202-217)]	binds

— US20050202009A1 (published 2005)
